IntAct's records for PubMed 25783203

B1: Vacuolar protein sorting-associated protein 33A (Homo sapiens), Q96AX1 (parent)
chain: MAAHLSYGRVNLNVLREAVRRELREFLDKCAGSKAIVWDEYLTGPFGLIAQYSLLKEHEVEKMFTLKGNRLPAADVKNIIFFVRPRLELMDIIAENVLSEDRRGPTRDFHILFVPRRSLLCEQRLKDLGVLGSFIHREEYSLDLIPFDGDLLSMESEGAFKECYLEGDQTSLYHAAKGLMTLQALYGTIPQIFGKGECARQVANMMIRMKREFTGSQNSIFPVFDNLLLLDRNVDLLTPLATQLTYEGLIDEIYGIQNSYVKLPPEKFAPKKQGDGGKDLPTEAKKLQLNSAEELYAEIRDKNFNAVGSVLSKKAKIISAAFEERHNAKTVGEIKQFVSQLPHMQAARGSLANHTSIAELIKDVTTSEDFFDKLTVEQEFMSGIDTDKVNNYIEDCIAQKHSLIKVLRLVCLQSVCNSGLKQKVLDYYKREILQTYGYEHILTLHNLEKAGLLKPQTGGRNNYPTIRKTLRLWMDDVNEQNPTDISYVYSGYAPLSVRLAQLLSRPGWRSIEEVLRILPGPHFEERQPLPTGLQKKRQPGENRVTLIFFLGGVTFAEIAALRFLSQLEDGGTEYVIATTKLMNGTSWIEALMEKPF
partner: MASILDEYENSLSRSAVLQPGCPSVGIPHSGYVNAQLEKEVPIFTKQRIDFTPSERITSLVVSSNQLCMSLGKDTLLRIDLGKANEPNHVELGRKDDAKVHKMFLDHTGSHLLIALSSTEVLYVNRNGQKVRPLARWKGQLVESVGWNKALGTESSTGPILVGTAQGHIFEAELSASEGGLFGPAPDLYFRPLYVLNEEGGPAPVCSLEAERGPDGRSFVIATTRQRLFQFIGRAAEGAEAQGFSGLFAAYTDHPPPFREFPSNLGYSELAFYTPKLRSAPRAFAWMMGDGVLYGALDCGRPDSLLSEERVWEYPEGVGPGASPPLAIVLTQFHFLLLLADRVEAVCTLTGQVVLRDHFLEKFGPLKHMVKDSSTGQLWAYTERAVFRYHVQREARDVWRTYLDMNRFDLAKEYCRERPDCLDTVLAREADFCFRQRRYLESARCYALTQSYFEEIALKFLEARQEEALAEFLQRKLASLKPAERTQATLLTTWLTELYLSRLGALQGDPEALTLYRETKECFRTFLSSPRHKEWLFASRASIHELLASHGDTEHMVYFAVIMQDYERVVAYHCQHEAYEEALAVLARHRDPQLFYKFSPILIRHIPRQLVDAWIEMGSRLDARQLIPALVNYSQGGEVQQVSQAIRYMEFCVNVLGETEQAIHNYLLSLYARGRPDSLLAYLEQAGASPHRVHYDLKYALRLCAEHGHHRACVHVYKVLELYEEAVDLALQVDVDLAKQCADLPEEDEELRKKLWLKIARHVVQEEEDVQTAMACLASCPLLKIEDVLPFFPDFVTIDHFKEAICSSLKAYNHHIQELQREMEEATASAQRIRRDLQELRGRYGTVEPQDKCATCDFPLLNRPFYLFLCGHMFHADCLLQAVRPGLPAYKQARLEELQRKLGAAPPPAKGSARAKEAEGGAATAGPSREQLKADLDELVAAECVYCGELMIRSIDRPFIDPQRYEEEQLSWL

Variants of: B1
Settings: with vps18_human VPS18, Q9P253

effect of a mutation on the interaction	Variant
disrupting interaction	MAAHLSYGRVNLNVLREAVRRELREFLDKCAGSKAIVWDEYLTGPFGLIAQYSLLKEHEVEKMFTLKGNRLPAADVKNIIFFVRPRLELMDIIAENVLSEDRRGPTRDFHILFVPRRSLLCEQRLKDLGVLGSFIHREEYSLDLIPFDGDLLSMESEGAFKECYLEGDQTSLYHAAKGLMTLQALYGTIPQIFGKGECARQVANMMIRMKREFTGSQNSIFPVFDNLLLLDRNVDLLTPLATQLTYEGLIDEIYGIQNSYVKLPPEKFAPKKQGDGGKDLPTEAKKLQLNSAEELYAEIRDKNFNAVGSVLSKKAKIISAAFEERHNAKTVGEIKQFVSQLPHMQAARGSLANHTSIAELIKDVTTSEDFFDKLTVEQEFMSGIDTDKVNNYIEDCIAQKHSLIKVLRLVCLQSVCNSGLKQKVLDYYDREILQTYGYEHKLTLHNLEKAGLLKPQTGGRNNYPTIRKTLRLWMDDVNEQNPTDISYVYSGYAPLSVRLAQLLSRPGWRSIEEVLRILPGPHFEERQPLPTGLQKKRQPGENRVTLIFFLGGVTFAEIAALRFLSQLEDGGTEYVIATTKLMNGTSWIEALMEKPF [K429D;I441K]
disrupting interaction	MAAHLSYGRVNLNVLREAVRRELREFLDKCAGSKAIVWDEYLTGPFGLIAQYSLLKEHEVEKMFTLKGNRLPAADVKNIIFFVRPRLELMDIIAENVLSEDRRGPTRDFHILFVPRRSLLCEQRLKDLGVLGSFIHREEYSLDLIPFDGDLLSMESEGAFKECYLEGDQTSLYHAAKGLMTLQALYGTIPQIFGKGECARQVANMMIRMKREFTGSQNSIFPVFDNLLLLDRNVDLLTPLATQLTYEGLIDEIYGIQNSYVKLPPEKFAPKKQGDGGKDLPTEAKKLQLNSAEELYAEIRDKNFNAVGSVLSKKAKIISAAFEERHNAKTVGEIKQFVSQLPHMQAARGSLANHTSIAELIKDVTTSEDFFDKLTVEQEFMSGIDTDKVNNYIEDCIAQKHSLIKVLRLVCLQSVCNSGLKQKVLDYYDREILQTYGDEHILTLHNLEKAGLLKPQTGGRNNYPTIRKTLRLWMDDVNEQNPTDISYVYSGYAPLSVRLAQLLSRPGWRSIEEVLRILPGPHFEERQPLPTGLQKKRQPGENRVTLIFFLGGVTFAEIAALRFLSQLEDGGTEYVIATTKLMNGTSWIEALMEKPF [K429D;Y438D]
disrupting interaction	MAAHLSYGRVNLNVLREAVRRELREFLDKCAGSKAIVWDEYLTGPFGLIAQYSLLKEHEVEKMFTLKGNRLPAADVKNIIFFVRPRLELMDIIAENVLSEDRRGPTRDFHILFVPRRSLLCEQRLKDLGVLGSFIHREEYSLDLIPFDGDLLSMESEGAFKECYLEGDQTSLYHAAKGLMTLQALYGTIPQIFGKGECARQVANMMIRMKREFTGSQNSIFPVFDNLLLLDRNVDLLTPLATQLTYEGLIDEIYGIQNSYVKLPPEKFAPKKQGDGGKDLPTEAKKLQLNSAEELYAEIRDKNFNAVGSVLSKKAKIISAAFEERHNAKTVGEIKQFVSQLPHMQAARGSLANHTSIAELIKDVTTSEDFFDKLTVEQEFMSGIDTDKVNNYIEDCIAQKHSLIKVLRLVCLQSVCNSGLKQKVLDYYKREILQTYGDEHKLTLHNLEKAGLLKPQTGGRNNYPTIRKTLRLWMDDVNEQNPTDISYVYSGYAPLSVRLAQLLSRPGWRSIEEVLRILPGPHFEERQPLPTGLQKKRQPGENRVTLIFFLGGVTFAEIAALRFLSQLEDGGTEYVIATTKLMNGTSWIEALMEKPF [Y438D;I441K]
